Laboratory results reported in the supplement of paper PMC5998384.

Key:
HeLa Kyoto [1] = test: solubility in G1/S (NP-40 vs SDS abundance) (log2 ratio); higher = more soluble; settings: cell cycle stage: G1/S
HeLa Kyoto [2] = test: melting temperature (median over replicates), in situ; higher = more thermally stable
HeLa Kyoto [3] = test: solubility change mitosis vs G1/S (difference of NP-40 vs SDS log2 ratios) (log2 ratio difference); higher = more soluble in mitosis
HeLa Kyoto [4] = test: thermal stability score vs G1/S (z-score of summed log2 fold changes over temperatures); higher = more thermally stable than in G1/S
[5] = cell cycle stage: early G1 (4.5 h after nocodazole release)
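Wherever melting temperature (median over replicates), in situ is given: HeLa Kyoto cells synchronized by double thymidine or nocodazole block, proteins quantified by TMT10plex mass spectrometry, three independent biological replicates.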
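Wherever solubility change mitosis vs G1/S (difference of NP-40 vs SDS log2 ratios) is given: synchronized HeLa Kyoto cells (double thymidine block for G1/S, nocodazole release for mitosis), protein amounts in NP-40 versus SDS lysates quantified by mass spectrometry, three biological replicates.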
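Wherever solubility in G1/S (NP-40 vs SDS abundance) is given: HeLa Kyoto cells arrested at G1/S by double thymidine block, proteins quantified by TMT10plex mass spectrometry in mild NP-40 versus SDS extracts, three biological replicates.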
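Wherever thermal stability score vs G1/S (z-score of summed log2 fold changes over temperatures) is given: synchronized HeLa Kyoto cells, proteins quantified by TMT10plex mass spectrometry, three biological replicates, mitosis taken 0.5 h after nocodazole release, G1/S directly after double thymidine block.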

Row | Sequence | solubility in G1/S (log2) (HeLa Kyoto [1]) | melting temperature (HeLa Kyoto [2]; cell cycle stage: G1/S) | melting temperature (HeLa Kyoto [2]; cell cycle stage: mitosis) | solubility change mitosis (log2) (HeLa Kyoto [3]) | thermal stability score (HeLa Kyoto [4]; [5]) | thermal stability score (HeLa Kyoto [4]; cell cycle stage: mitosis)
1 | MEQPGQDPTSDDVMDSFLEKFQSQPYRGGFHEDQWEKEFEKVPLFMSRAPSEIDPRENPDLACLQSIIFDEERSPEEQAKTYKDEGNDYFKEKDYKKAVISYTEGLKKKCADPDLNAVLYTNRAAAQYYLGNFRSALNDVTAARKLKPCHLKAIIRGALCHLELKHFAEAVNWCDEGLQIDAKEKKLLEMRAKADKLKRIEQRDVRKANLKEKKERNQNEALLQAIKARNIRLSEAACEDEDSASEGLGELFLDGLSTENPHGARLSLDGQGRLSWPVLFLYPEYAQSDFISAFHEDSRFIDHLMVMFGETPSWDLEQKYCPDNLEVYFEDEDRAELYRVPAKSTLLQVLQHQRYFVKALTPAFLVCVGSSPFCKNFLRGRKVYQIR [TTC4] | 0.484 | 49.8 °C | 49.4 °C | -0.0862 | -0.209 | 0.287
2 | MEQPKGVDWTVIILTCQYKDSVQVFQRELEVRQKREQIPAGTLLLAVEDPEKRVGSGGATLNALLVAAEHLSARAGFTVVTSDVLHSAWILILHMGRDFPFDDCGRAFTCLPVENPEAPVEALVCNLDCLLDIMTYRLGPGSPPGVWVCSTDMLLSVPANPGISWDSFRGARVIALPGSPAYAQNHGVYLTDPQGLVLDIYYQGTEAEIQRCVRPDGRVPLVSGVVFFSVETAERLLATHVSPPLDACTYLGLDSGARPVQLSLFFDILHCMAENVTREDFLVGRPPELGQGDADVAGYLQSARAQLWRELRDQPLTMAYVSSGSYSYMTSSASEFLLSLTLPGAPGAQIVHSQVEEQQLLAAGSSVVSCLLEGPVQLGPGSVLQHCHLQGPIHIGAGCLVTGLDTAHSKALHGRELRDLVLQGHHTRLHGSPGHAFTLVGRLDSWERQGAGTYLNVPWSEFFKRTGVRAWDLWDPETLPAEYCLPSARLFPVLHPSRELGPQDLLWMLDHQEDGGEALRAWRASWRLSWEQLQPCLDRAATLASRRDLFFRQALHKARHVLEARQDLSLRPLIWAAVREGCPGPLLATLDQVAAGAGDPGVAARALACVADVLGCMAEGRGGLRSGPAANPEWMRPFSYLECGDLAAGVEALAQERDKWLSRPALLVRAARHYEGAGQILIRQAVMSAQHFVSTEQVELPGPGQWVVAECPARVDFSGGWSDTPPLAYELGGAVLGLAVRVDGRRPIGARARRIPEPELWLAVGPRQDEMTVKIVCRCLADLRDYCQPHAPGALLKAAFICAGIVHVHSELQLSEQLLRTFGGGFELHTWSELPHGSGLGTSSILAGTALAALQRAAGRVVGTEALIHAVLHLEQVLTTGGGWQDQVGGLMPGIKVGRSRAQLPLKVEVEEVTVPEGFVQKLNDHLLLVYTGKTRLARNLLQDVLRSWYARLPAVVQNAHSLVRQTEECAEGFRQGSLPLLGQCLTSYWEQKKLMAPGCEPLTVRRMMDVLAPHVHGQSLAGAGGGGFLYLLTKEPQQKEALEAVLAKTEGLGNYSIHLVEVDTQGLSLKLLGTEASTCCPFP [FUK] | -0.0525 | 56.6 °C | 54.8 °C | -0.182 | -0.477 | -1.02
3 | MERAAPSRRVPLPLLLLGGLALLAAGVDADVLLEACCADGHRMATHQKDCSLPYATESKECRMVQEQCCHSQLEELHCATGISLANEQDRCATPHGDNASLEATFVKRCCHCCLLGRAAQAQGQSCEYSLMVGYQCGQVFQACCVKSQETGDLDVGGLQETDKIIEVEEEQEDPYLNDRCRGGGPCKQQCRDTGDEVVCSCFVGYQLLSDGVSCEDVNECITGSHSCRLGESCINTVGSFRCQRDSSCGTGYELTEDNSCKDIDECESGIHNCLPDFICQNTLGSFRCRPKLQCKSGFIQDALGNCIDINECLSISAPCPIGHTCINTEGSYTCQKNVPNCGRGYHLNEEGTRCVDVDECAPPAEPCGKGHRCVNSPGSFRCECKTGYYFDGISRMCVDVNECQRYPGRLCGHKCENTLGSYLCSCSVGFRLSVDGRSCEDINECSSSPCSQECANVYGSYQCYCRRGYQLSDVDGVTCEDIDECALPTGGHICSYRCINIPGSFQCSCPSSGYRLAPNGRNCQDIDECVTGIHNCSINETCFNIQGGFRCLAFECPENYRRSAATLQQEKTDTVRCIKSCRPNDVTCVFDPVHTISHTVISLPTFREFTRPEEIIFLRAITPPHPASQANIIFDITEGNLRDSFDIIKRYMDGMTVGVVRQVRPIVGPFHAVLKLEMNYVVGGVVSHRNVVNVHIFVSEYWF [FBLN1] | -0.102 | 54 °C | 55.4 °C | -0.045 | 1.49 | 0.0681
